The record followed here is article PMC8028314, “Sae2 and Rif2 regulate MRX endonuclease activity at DNA double-strand breaks in opposite manners” (Cell Reports, 2021).

For the assay, the target named is T1, Mre11-Rad50 complex (S. cerevisiae, UniProt P32829 1-692; P12753 1-1312).
T1 construct: Mre11, S. cerevisiae; Rad50, S. cerevisiae; untagged; they were not measured here; also called wild-type MR; source: Sf9 cells, purified (NiNTA, HiTrap SP HP, HiTrap Q HP); copies: 2 + 2
Kind of assay: pull-down; MBP-Rif2-his from Sf9 lysate bound to amylose resin, washed with 1 M then 0.1 M NaCl buffer (50 mM Tris-HCl pH 7.5, 0.2% NP40, 2 mM EDTA); recombinant MR variants (1 ug) added, 1 h at 4°C; washed with 0.1 M NaCl buffer; eluted with 20 mM maltose and cleaved with PreScission protease; Ponceau (Rif2) and western blots (anti-Rad50, anti-His). The settings on record: both partners purified. In general terms: Immunoblotting shows a protein as a band on a membrane.

T1 sequence (P32829 whole entry, chain 1 of 2): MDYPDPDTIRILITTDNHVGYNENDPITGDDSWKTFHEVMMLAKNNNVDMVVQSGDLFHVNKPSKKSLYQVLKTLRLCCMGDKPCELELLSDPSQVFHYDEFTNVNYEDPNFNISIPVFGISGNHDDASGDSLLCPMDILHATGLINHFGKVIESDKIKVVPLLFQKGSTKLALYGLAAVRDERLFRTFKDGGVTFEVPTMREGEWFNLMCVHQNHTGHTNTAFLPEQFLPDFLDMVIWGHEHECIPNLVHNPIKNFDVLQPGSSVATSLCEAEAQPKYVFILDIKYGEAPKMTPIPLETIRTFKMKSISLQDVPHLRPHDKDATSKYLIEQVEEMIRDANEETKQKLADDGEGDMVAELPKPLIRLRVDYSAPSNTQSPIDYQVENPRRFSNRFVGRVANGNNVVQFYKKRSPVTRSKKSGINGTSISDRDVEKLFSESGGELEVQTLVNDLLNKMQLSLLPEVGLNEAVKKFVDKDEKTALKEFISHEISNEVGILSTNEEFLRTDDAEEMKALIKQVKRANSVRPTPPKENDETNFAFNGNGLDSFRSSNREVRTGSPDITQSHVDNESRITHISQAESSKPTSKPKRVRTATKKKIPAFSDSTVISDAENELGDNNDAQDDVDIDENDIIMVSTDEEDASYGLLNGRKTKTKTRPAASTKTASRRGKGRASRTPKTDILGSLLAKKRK
T1 sequence (P12753 whole entry, chain 2 of 2): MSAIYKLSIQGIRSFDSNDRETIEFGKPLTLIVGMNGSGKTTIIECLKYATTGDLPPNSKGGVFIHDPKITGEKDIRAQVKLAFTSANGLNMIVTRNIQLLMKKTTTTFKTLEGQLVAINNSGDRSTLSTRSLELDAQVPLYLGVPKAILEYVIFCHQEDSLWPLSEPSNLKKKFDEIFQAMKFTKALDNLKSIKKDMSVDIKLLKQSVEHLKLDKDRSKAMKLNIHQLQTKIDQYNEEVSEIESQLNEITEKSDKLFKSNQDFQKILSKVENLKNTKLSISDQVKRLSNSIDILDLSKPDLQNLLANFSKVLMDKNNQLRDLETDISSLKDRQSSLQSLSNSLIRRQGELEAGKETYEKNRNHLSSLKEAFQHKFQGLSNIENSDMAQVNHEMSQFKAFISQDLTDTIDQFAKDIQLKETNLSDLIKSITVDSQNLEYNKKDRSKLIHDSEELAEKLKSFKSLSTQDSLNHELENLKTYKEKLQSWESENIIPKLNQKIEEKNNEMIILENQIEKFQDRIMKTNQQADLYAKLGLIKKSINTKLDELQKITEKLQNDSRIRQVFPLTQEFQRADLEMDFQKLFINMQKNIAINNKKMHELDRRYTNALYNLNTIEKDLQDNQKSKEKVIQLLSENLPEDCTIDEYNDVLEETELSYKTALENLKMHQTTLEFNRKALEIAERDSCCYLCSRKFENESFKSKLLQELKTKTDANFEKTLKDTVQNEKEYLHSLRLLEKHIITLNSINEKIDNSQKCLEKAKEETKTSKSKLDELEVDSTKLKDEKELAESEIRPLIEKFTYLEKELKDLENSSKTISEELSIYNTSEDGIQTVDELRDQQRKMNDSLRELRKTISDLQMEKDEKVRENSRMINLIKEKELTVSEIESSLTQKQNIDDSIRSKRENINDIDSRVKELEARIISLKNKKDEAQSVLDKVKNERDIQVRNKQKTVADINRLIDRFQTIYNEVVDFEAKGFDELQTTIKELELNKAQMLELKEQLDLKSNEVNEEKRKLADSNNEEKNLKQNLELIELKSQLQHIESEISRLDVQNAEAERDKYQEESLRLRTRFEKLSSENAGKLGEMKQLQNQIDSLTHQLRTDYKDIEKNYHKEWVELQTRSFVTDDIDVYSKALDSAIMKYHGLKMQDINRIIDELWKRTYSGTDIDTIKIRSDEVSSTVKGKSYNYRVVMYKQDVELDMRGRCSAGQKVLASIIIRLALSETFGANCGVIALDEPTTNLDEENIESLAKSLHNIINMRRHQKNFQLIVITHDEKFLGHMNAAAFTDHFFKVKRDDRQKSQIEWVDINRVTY

B1: MBP-Rif2-his (natural protein, S. cerevisiae, UniProt Q06208 1-395, looked up)
chain: MEHVDSDFAPIRRSKKVVDSDKIVKAISDDLEQKNFTVLRKLNLVPIKKSVSSPKVCKPSPVKERVDHVFYQKFKSMALQELGTNYLSISYVPSLSKFLSKNLRSMKNCIVFFDKVEHIHQYAGIDRAVSETLSLVDINVVIIEMNDYLMKEGIQSSKSKECIESMGQASYSGQLDFEASEKPSNHTSDLMMMVMRKINNDESIDHIVYFKFEQLDKLSTSTIIEPSKLTEFINVLSVLEKSNNIAFKVLIYSNNVSISSLLSTSLKKKLNTKYTVFEMPILTCAQEQEYLKKMIKFTFDSGSKLLQSYNSLVTCQLNNKESNLAIFFEFLKVFPHPFTYLFNAYTEIIVQSRTFDELLDKIRNRLTIKNYPHSAYNFKKNQRLPLKLTRKVHDR
notes: Rif2, S. cerevisiae; recombinant full-length Rif2; The MBP tag was cleaved with PreScission protease only after elution from the resin; In the ATPase and nuclease assays purified Rif2-his with MBP cleaved off was used; The construct was a gift from A. Bianchi; also called recombinant Rif2; not shown: MBP, N-terminal, kept; 10xHis, C-terminal, kept
For the molecule B1, the binding result is “binds”.
